Here are results for 2 molecules from patent US20060216303A1.

The assay concerns the target bacterial fusion protein 11-2 (a hybrid of b-galactosidase and human mammary mucin) (human) (UniProt P15941). The assay can be described thus: reciprocal of the competitor concentration giving 50% binding; competition radioimmunoassay on 11-2 fusion protein.

B1: murine-human chimeric BrE-3 antibody (antibody, V domains shown)
VH: EVKLEESGGGLVQPGGSMKLSCAASGFTFSDAWMDWVRQSPEKGLEWVAEIRNKANNHATYYDESVKGRFTISRDDSKSRVYLQMISLRAEDTGLYYCTGEFANWGQGTLVTVSA
VL: DVVMTQTPLSLPVSLGDQASISCRSSQNLVHNNGNTYLYWFLQKSGQSPKLLIYRASIRFSGVPDRFSGSGSETDFTLKISRVEAEDLGVYFCFQGTHVPWTFGGGTKLEIK
On to B1, for which the Ka was found to be 2.68e+08 M⁻¹.

B2: murine BrE-3 monoclonal antibody (antibody, V domains shown)
VH: EVKLEESGGGLVQPGGSMKLSCAASGFTFSDAWMDWVRQSPEKGLEWVAEIRNKANNHATYYDESVKGRFTISRDDSKSRVYLQMISLRAEDTGLYYCTGEFANWGQGTLVTVSA
VL: DVVMTQTPLSLPVSLGDQASISCRSSQNLVHNNGNTYLYWFLQKSGQSPKLLIYRASIRFSGVPDRFSGSGSETDFTLKISRVEAEDLGVYFCFQGTHVPWTFGGGTKLEIK
Turning to B2, the Ka turned out to be 3.75e+08 M⁻¹.
